Results: the PETadex activity labels

Substrate: BHET
Conditions: 120 h

B1: unnamed (protein)
chain: MTLTSTLRRQTRTTATATVLAAAAALALCAAPASAQQTGPNPTSSSLNATSGPFAVSSVSVVAPTGFGGGTIYYPTTAGQYGVVAISPGFTATESSIAWLGRRMATHGFVVVTINTLTTLDQPASRATQLMAALNHVVNSASSTVRSRVDPNRRAVAGHSMGGGGALIAAENNPGLKAALPLTPWNLTTNFSDVQVPTLIVGADGDTVAPAAIHARPFYASLSSSVRKAYAELNFSTHFTPNTTNTPIGRYGVTWMKRFVDGDTRYSTFLCGAEHNAYNTALVFERYSQNCPY
  plate clearing: not clears the plate

B2: unnamed (protein)
chain: MATFNQLMHWSLAGLAVSMLGACGGGGGGGTPDAPPVMTPAPLPAPIPAPLPPLPPPPPAPTACTTSCRGADPTPASVEADAGPYAVATLALTQANGAAAMVYYPTGSSESFGAVVTMPGWDGDQSNLQWLGPRLASNGFVVINVDTPARRGDFPDARARFGVQALDQVVTLSATPGNALSGKVDAARLGMVGHSMGGGAALVAARDHPGLFKAVVPLSPWYDQATRDFPSATPALVFVCTGDMTASVAGYALPVYDSLRSHKAYVEAAHVPVPGGDAHNCVRTGVANRPKLGKTVVSWLKLWLDGDPRYLPFVCGAQNPGTDAGFTNVWRSSCPF
  plate clearing: not clears the plate

B3: unnamed (protein)
chain: MKRTLSLRRLWQAMAACASLCIAAAASAQVGPDPTSAGLEASAGPFTVSTSSVSSYVRGFGGGTIYYPSAAGQYGVVAISPGFTATQSSVAWLGRRLASHGLVVITINTNSVFDMPASRATQLMAALNHVVSGASSTIRSRVDSTRLAVSGHSMGGGGALIAAQNNPTLRASLPLTPWNNATNFDTVRVPTLIFGADGDTVASASSHARPFYASLPATTLKAYAELNNANHSTPNSTNTPIGRYSVAWMKRFVDADARYSPFLCGEPHRTYATPAVFDRYNQNCPY
  plate clearing: not clears the plate

B4: unnamed (protein)
chain: MRKLLRRGPMRLLAVGLVIAVGVLATACDWRGPEPSDQLLTGTGPFGIGTISVPASAGFGGGTIYYPTGNPGPFAVVSFSPGFLEQSGAFPGWGNKLASHGFVAILFNTSNTGEFPDARSTEQRQALTYVINQGQNPSSPIFGLVDGNRTAVMGHSMGGGASLISAQADHTIDAVIPVAPWNGGTNFSGITSPTLVVACQSDSTAPVNSHASPFYNSIPSTTKKEYLSVAGGDHFCANDPSLVGGGNIGKYAVAFLKRWLDTDTRYDPWTCGASKATAGSVFNEVRSTCPW
  plate clearing: not clears the plate

B5: unnamed (protein)
chain: MRALLSPTRRRLMTRVSTLSTLPLRRVLCSLALSAVAAAASAQTAPPTSASLNATAGPLAVSSVAISGATGFGGGTIYYPQAAGSYGVIAISPGYGARGSSLAWLARRLATHGFVVAAINTTSTMDSPPSRGPQLMAALDHVVNKADANVRSRADGSRMAVMGHSAGGGGALVAARDNPTLKAAVALTPGSFGNFYSGVRVPTIIFGADGDTITPVTSQARPAYNSIPVTTPKAYGELNNATHLTPVSTNTPIGRYSVAWAKRFVDGDTRYS
  plate clearing: not clears the plate

B6: unnamed (protein)
chain: MHETNTRVRAGRACGCARAVRRVERGRVGRGRCLMRYRAFAWWWVCACLLLACGDTSGGNADETGPVTGQQPAAGASGQSASGTGGGTPAMPMSGGTSAGSAGRAGSAGMPPPAAGMGSMAGEGGTAGTDADAGASGVGGSAGGTSGVGGSAGSAGEGPDPEGPDPTTESASRAGPLNVESIPWTEFRNGPDFAGGTIWYPTDGEPPYPFVAIVPGFTAYESSIRSWGPFLASHNIVAITIDTNTTADQPPTRAAALLDALESVAAENSRSGSPLMDKLDESRQALMGWSMGGGGTLIAANRTPSLKAAISLCGWNPLGSYSMMTVPSLMFASLGDPLAGGQSQGFYRSIPDTTPKMLIEAGVADHFVANNPAYLNGLIGRYGLSWLKVFMVGDERYRQFLLEMPQGTTDYASNVE
  plate clearing: not clears the plate

B7: unnamed (protein)
chain: MRSSHVRIKKDKRATRMRSAPVSAREPTSARRVTHAQRADPLDRQRRQPMRFQQHASRLIKASILGSLVVLSAAATAQTNPFARGPNPTASALEATSGPFTVRNFTVSRPSGYGAGTVYYPTNAGGTVGAIAIVPGYTARQSSINWWGPRLASHGFVVITIDTNSTLDQPGSRSSQQMAALRQVVSLNGTSSSPIYNKVDTSRLGVMGWSMGGGGSLISAANNPSLKAAAPQAPWNTSTNFSSLTVPTLIFACENDSIAATRSHASPMYNSMRNNPRQYLEITRGSHSCANSGNSDRGLLGKKGVAWMKRYMDNDTRYTTFACQNPNTSRVSDFRVANCS
  plate clearing: not clears the plate

B8: unnamed (protein)
chain: MPDADTGRRANRCGAGNPAEGNPVITTRKRLVRRLAALVLVAFALVACDIKGPDPTDAILTASSGPFGVGTLAVPTSAGFGGGTIYYPTGVDGPFAVISVAPGFTETASAVAEWGPRLASHGFVTIVFNTSNTFENPSTRSTEQRQALTYTINQSNTAGSPIAGLVDGNRRGVAGHSMGGGGTLISEQADSTIRAGVPLAPWNTSPDFPDITVPTLFLACQNDSIAPVANHASPMYESIPATTHKSFVSFAGGDHFCANSPTGGSSNAGKFAVAFFKKFLDGDTRYDPWVCGASKPAVNSAINEVRSTCPF
  plate clearing: not clears the plate

B9: unnamed (protein)
chain: MRPTRCPSRATSPLRSRSRVLAVLIVMATTLASTLLTVSVTPAATAARQSQSRSVAGSSSEHASVRATIPDPTTASLEATNGPLAIATYTVPQPSGYGSGTITYPTARGSYPAVVLMPGYQGTQQNLQWVAPRLASWGFIVINVGTKTLGDDPASRGRQISAAGTQLLSLGSVAGNPLYGKMNGTLGAAGHSMGGGGVMAALREDSRFTAGMPLAPYYPNQNFSGVTDPTFFLTCKSDPVAHGNTYALPWYNSMSQAEKLYIEVPGDHLCPMTGYGNKAKQGKWIVSFFSRWLYGDTRFSPFLCGAAREADKNNPSLVTRWQDTCPF
  plate clearing: not clears the plate

B10: unnamed (protein)
chain: MPMYKLNHVFFAVALAACSALGCAEGSDGSTVSTGGDGVGGGAGETDLPAGAGGTAGVGGAAGSVDPSDIAGTGGSAGTAGETVAGSSGVPVAGTGGIPVAGSGGTGIVDSGGIGGGGAGGTLENNNFIRGPAPTAQSASQAGPYDVQSTTQGLRDPAEYGTQTLWYPTDAEPPFAAIAIVPGFVSPEGSIANWGPFLASHGIVVLTIGTNTGGDLPEVRSAALLAALDTIKAEHTRQGSPIEGKIDTGKLAVGGWSMGGGGTLLTITAHPELKAGLGICPWYMNAFAFAGNTVPVIMFAGTMDVLAGGMSQGFYDAIPASTPKMLFEIAGADHFYANDPLNVANPFTVQVGLYGLSWLKVFLEGDDRYRQFLLNPPQNASDFRTTVK
  plate clearing: not clears the plate

B11: unnamed (protein)
chain: MHAVTSLGFVRASTAPGGRGWRRLAWALALGCGLGVGTTASYAQATGPNPSSAFLNASAGPLRVATESVSSFVTGFGGGTIYYPSTAGRYGVIAISPGFTATESSVAWLGRRLASHGFVAIVINTNSTLDQPASRATQLMAALRHATTGASSTVRARIDSTRQAVAGHSMGGGGTLIAAEDNPTLKAAIPLTPWNLSTSFNGVRVPTLIVGADGDTVASVAVHARPFYASLPASTFKAYAELNGASHFAPNTTNTPIGRYSVAWAKRFIDGDTRYSPFLCGAEHRAYATAAVFDRYNQNCPY
  plate clearing: not clears the plate

B12: unnamed (protein)
chain: MQRQTCTTPVGPFHPQETSPMTLTSTLQRFAGIRPFALALPLAAIGWVAQAQTNPPTSSLLNATAGPLTVSTSSVSSFAARGFGGGTIYYPDATGSYGVVAISPGYTARQSSIAWLGRRLATHGFVVITIDTNSTLDQPPSRATQLMAALGHVVNNANATVRSRVDASKQAVAGHSMGGGGSLIAAQNNPTLKAAYPLTPWSVSKNYGTVRVPTMIIGADGDTIAAVTTHSRAFYNSLSSTVFKAYGELNNASHFTPNSTNTPIGRYAVSWMKRFVDSDTRYSPFLCGAPHDSYATRTVFDRYERNCPY
  plate clearing: not clears the plate

B13: unnamed (protein)
chain: MKKSILEKIAVGTGALLFSVSAFSFTPSPTPDPDPDPDPTPCQGECDFTRGPNPTSSYLEASRGPYTVRNVSVSRSVSGFGGGTIHYPTNTTGTMGAIAIVPGFLAGESSISWWGPRLASHGFVVITIATNSTFDQPASRETQLGRALDYLVSQSNSSSSPISGKVDSARLGAMGWSMGGGGTLRLASGSRLVAAIPLAPWHSGSNNFNRIQTPTMIIACENDTTAAVRSHASPFYNSIPSSTDKAFLEINNGSHSCANGGGSNGGLLGKYGVSWMKRFMDQDTRYNQFLCGPNHAANSAISEYRETCNY
  plate clearing: not clears the plate

B14: unnamed (protein)
chain: MKTIARWQRRCAVGLGLLLLAAAAQSQTNPFQKGPDPTSTILNATAGPFAVATASVPSSVAGFGGGTVYYPTTAGSYAALALCPGFTATQSSIAWIGRRLATHGFVVITINTNSTFDQPPSRATQLMAALRYLTNSSSTTVRSRIDANRLGVGGHSMGGGGTLMATRDNPSLKVGIPMTPWSSTKSFSTVRVPTIIFGGENDTVAPVSSHSIPFYTSLPSSLDKAYAELNGASHFAPNSTNTPIGRYAVSWAKRFMDNDTRYDTFLCGSAHTAFATPAVFSDYRSTCPY
  plate clearing: not clears the plate
